How the values were obtained:
[1] = tested on: EcoRI restriction endonuclease; conditions: highest Ka measured in this report; optical-trap unzipping (UFAPA); 10 mM HEPES pH 7.6, 1 mM EDTA, no Mg2+, 106-262 mM Na+, 23 C; Ka decreases with Na+ …
[2] = target: T1, BsoBI restriction endonuclease (UniProt P70985 P70985:2-323); test: optical-trap unzipping, dynamic force spectroscopy: f_beta 4.36 +/- 0.53 pN, ln(toff in s) 7.6 +/- 1.1, N=51; BsoBI 0.7 nM, 50 mM Na phosphate pH 7.0, 50 mM NaCl, 10 mM EDTA, no Mg2+, 23 C; conditions: tags: New England BioLabs, commercial grade, used without further purification; chain copies: 2 (stated, 72 kD dimer); label: digoxigenin and biotin (via anchoring segment and insert duplex)
T1 sequence: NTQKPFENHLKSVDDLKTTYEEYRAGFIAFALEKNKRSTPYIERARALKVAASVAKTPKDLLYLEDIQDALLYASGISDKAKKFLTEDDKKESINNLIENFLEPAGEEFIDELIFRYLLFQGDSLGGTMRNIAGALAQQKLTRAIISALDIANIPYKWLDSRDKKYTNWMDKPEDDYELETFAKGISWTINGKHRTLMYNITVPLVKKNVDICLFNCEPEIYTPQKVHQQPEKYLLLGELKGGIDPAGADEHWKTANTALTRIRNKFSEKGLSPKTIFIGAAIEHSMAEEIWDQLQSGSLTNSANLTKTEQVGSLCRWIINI
Protocol: (§1) Unzipping Buffer Conditions. Experiments with BsoBI and XhoI were performed at room temperature (23° C.) in a buffer containing 50 mM sodium phosphate buffer pH 7.0, 50 mM NaCl, 0.02% Tween-20, 10 mM EDTA. To facilitate better comparisons of future EcoRI results with previously reported results, mapping and equilibrium constants studies of EcoRI were performed at room temperature (23° C.) in a buffer containing 10 mM HEPES, pH 7.6, 1 mM EDTA, 50 μM DTT, 100 μg/ml BSA, 500 μg/ml Blotting Grade Blocker (Bio-Rad) and NaCl added to produce total Na+concentrations of 106 to 262 mM. […] The Hepes buffer is similar to the buffer used by Ha et al., “Role of the Hydrophobic Effect in Stability of Site-Specific Protein-DNA Complexes,” J. Mol. Biol. 209:801-816 (1989), the entire disclosure of which is hereby incorporated by reference in its entirety, for temperature dependence studies of EcoRI binding to its site on pBR322. Because of the tendency for EcoRI to aggregate at lower ionic strengths (Jen-Jacobson et al., “Coordinate Ion Pair Formation Between EcoRI Endonuclease and DNA,” J. Biol. Chem. 258:14638-14646 (1983), the entire disclosure of which is hereby incorporated by reference in its entirety), the EcoRI mapping data were taken at 131 mM total Na+ concentration. […]

[3] = target: T1, BsoBI restriction endonuclease; test: optical-trap unzipping, dynamic force spectroscopy: f_beta 4.04 +/- 0.14 pN, ln(toff in s) 4.98 +/- 0.27, N=243; BsoBI 0.7 nM, 50 mM Na phosphate pH 7.0, 50 mM; conditions: tags: New England BioLabs, commercial grade, used without further purification; chain copies: 2 (stated, 72 kD dimer); label: digoxigenin and biotin (via anchoring segment and insert duplex)
Protocol: as §1

Molecule: pBR322 EarI large fragment unzipping segment with single EcoRI site
- Ka [1]: 1e+11 M⁻¹

B1: beta site (BsoBI/XhoI) (dsDNA)
DNA 1: AAACTCGAGAGA
DNA 2: TCTCTCGAGTTT
- binding result [2]: binds

B2: BsoBI alpha site (dsDNA)
DNA 1: TTCCTCGGGAAT
DNA 2: ATTCCCGAGGAA
- binding result [3]: binds

— patent US20030108935, “Probing binding interactions between molecules and nucleic acids by unzipping a nucleic acid molecule double helix” (published 2003)
